We go through one molecule from patent EP4596582A1.

Assay [1] has as its target human B7-H3-4Ig-His protein (human) (UniProt Q5ZPR3). Briefly: ELISA, antigen coated at 1 ug/ml (specificity panel). (In general: In an ELISA, binding on a coated surface is turned into a signal by an enzyme label.)
For assay [2] the target is unchanged. Briefly: ELISA, antigen coated at 1 ug/ml.
Assay [3] has the same target. Briefly: ELISA, antigen coated at 1 ug/ml. This is another data set of the same source.
In assay [4] the target is monkey B7-H3-4Ig-His protein (monkey). Briefly: ELISA, antigen coated at 1 ug/ml.
The target in assay [5] is human B7-H3-4Ig on CHO-S cells (CHO-S-human B7-H3-4Ig) (human) (UniProt Q5ZPR3). Briefly: cell-based or functional assay.
Assay [6] addresses human B7-H3 on human tumor cells (MCF-7, HT29, NCI-N87, HCC1806, HCC827) (human) (UniProt Q5ZPR3). Briefly: cell-based or functional assay.

Chain of human B7-H3-4Ig-His protein (human) (Q5ZPR3 other isoform, or with tags, fused parts or gaps): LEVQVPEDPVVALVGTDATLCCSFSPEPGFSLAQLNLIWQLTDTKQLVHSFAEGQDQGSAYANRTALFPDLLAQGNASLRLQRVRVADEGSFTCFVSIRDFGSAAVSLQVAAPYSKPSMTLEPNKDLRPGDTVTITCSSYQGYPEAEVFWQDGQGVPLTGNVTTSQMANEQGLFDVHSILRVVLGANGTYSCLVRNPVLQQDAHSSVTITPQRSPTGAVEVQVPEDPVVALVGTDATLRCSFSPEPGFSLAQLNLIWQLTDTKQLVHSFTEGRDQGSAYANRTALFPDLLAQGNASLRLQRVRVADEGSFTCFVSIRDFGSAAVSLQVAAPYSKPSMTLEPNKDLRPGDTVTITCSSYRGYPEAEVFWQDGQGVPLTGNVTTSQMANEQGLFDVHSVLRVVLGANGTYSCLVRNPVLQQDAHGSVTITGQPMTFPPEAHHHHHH
Chain of human B7-H3 on human tumor cells (MCF-7, HT29, NCI-N87, HCC1806, HCC827) (human) (Q5ZPR3 29-534): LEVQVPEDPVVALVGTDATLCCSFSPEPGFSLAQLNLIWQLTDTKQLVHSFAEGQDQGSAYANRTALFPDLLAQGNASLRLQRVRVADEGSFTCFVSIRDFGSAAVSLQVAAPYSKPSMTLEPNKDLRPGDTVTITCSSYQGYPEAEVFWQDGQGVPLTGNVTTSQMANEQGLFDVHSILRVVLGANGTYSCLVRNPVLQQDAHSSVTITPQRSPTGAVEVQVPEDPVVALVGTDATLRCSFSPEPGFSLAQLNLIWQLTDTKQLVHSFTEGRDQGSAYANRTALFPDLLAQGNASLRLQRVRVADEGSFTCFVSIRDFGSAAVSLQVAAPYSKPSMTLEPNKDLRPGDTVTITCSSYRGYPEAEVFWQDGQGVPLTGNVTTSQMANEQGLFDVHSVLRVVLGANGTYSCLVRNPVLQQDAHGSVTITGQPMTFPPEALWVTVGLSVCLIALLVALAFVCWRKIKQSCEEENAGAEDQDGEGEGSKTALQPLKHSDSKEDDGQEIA
Chain of human B7-H3-4Ig on CHO-S cells (CHO-S-human B7-H3-4Ig) (human) (Q5ZPR3 29-534): as above

B1: control B7-H3 antibody DS7300 (antibody, INN chains, looked up, V domains shown)
VH: QVQLVQSGAEVKKPGSSVKVSCKASGYTFTNYVMHWVRQAPGQGLEWMGYINPYNDDVKYNEKFKGRVTITADESTSTAYMELSSLRSEDTAVYYCARWGYYGSPLYYFDYWGQGTLVTVSS
VL: EIVLTQSPATLSLSPGERATLSCRASSRLIYMHWYQQKPGQAPRPLIYATSNLASGIPARFSGSGSGTDFTLTISSLEPEDFAVYYCQQWNSNPPTFGQGTKVEIK
For orientation: EC50 means the concentration needed to bring the measured effect to its halfway point. In the case of B1, the EC50 in assay [1] came out at 0.00336 µg/mL; in assay [2] it was 0.00336 µg/mL; in assay [3], 0.0138 µg/mL; in assay [4] it was 0.0237 µg/mL. Also, in assay [5], the ADCC: EC50 of luciferase signal of Jurkat-NFAT/Luciferase-CD16A effector cells with CHO-S-human B7-H3-4Ig target cells came to 0.108 µg/mL. In assay [6], this molecule came in with an Endocytosis EC50 on HCC827 cells (PHrodo, flow cytometry) of 0.0152 µg/mL. The molecule further had an Endocytosis EC50 on HCC1806 cells (PHrodo, flow cytometry) in assay [6] of 0.0572 µg/mL. The Endocytosis EC50 on NCI-N87 cells (PHrodo, flow cytometry) in assay [6] is 0.0241 µg/mL.
